Assay results published in the DeepSol protein solubility set.

assay: soluble on expression in E. coli; label from the status in PepcDB or PDB records

Sequence | soluble on expression in E. coli
PRNSKNDGVDTAIYHHKLRDQVLKALYDVLAKESEHPPQSILHTAKAIESEMNKVNNCDTNEAAYKARYRIIYSNVISKNNPDLKHKIANGDITPEFLATCDAKDLAPAPLKQKIEEIAKQNLYNAQGATIERSVTDRFTCGKCKEKKVSYYQLQTRSADEPLTTFCTCEACGNRWKFS | soluble
MKVIGINGSPRRAGNTSIMLKTIFEVLEDEGIETELIQVGGTNIKGCRACYACIKNKNSECSTKGDGFNEIFAKMVEADGMILGSPTYFADITPELKALIDRAGFVSRTNGQLFRHKVGASVVSLRRGGGIHAYDSINHLFQICQMFMVGSTYWNLGFGGRDGGEVVNDTEGMENMRDLGHSMAFLLKKLHNLEHHHHHH | not soluble
MYNVIGVRFKKAGKIYYFDPNGFHIEHDSCVIVETVRGVEYGQVVIANKQVDEHDVVLPLRKVIRVADDRDLLIVEENKQEALSAFDICQKKVIEHGLDMKLVDVEFTFDRNKVIFYFTADGRVDFRELVKDLASIFKTRIELRQIGVRDEAKMLGGIGPCGRMLCCSTFLGDFEPVSIKMAKDQNLSLNPTKISGLCGRLMCCLKYENDEYETAKEQLPDIGEMITTANGPAKVVGLNILERVLQVELINREKVIEYTWEELLEEGVVSAQTTDLEHHHHHH | not soluble
MAHHHHHHMTVARDHDIDDHDTSFTSFGGERPPFERIPVPSMASKEYTENLPAFDSDRPMPPPRSVFERFSRVMQLQFGQDPDMPLLGSRAERKYRSWLDYVTSPPSPLLPRNYVDAYTRPNPCPEEYWWASWRWPRIKYVNAKVPPPVDGKYNDYYHYLAYKNWMERERDVYVAHANLVNEMAMRCLVKEGQYNAAKNCRHLYHKGFAMSRMEELNQTLLYMALTGNAAIRETPYPENFVEEKRKIYDDWLFRTRMKKPGDVA | not soluble
MGKIGIFFGTDSGNAEAIAEKISKAIGNAEVVDVAKASKEQFNSFTKVILVAPTAGAGDLQTDWEDFLGTLEASDFANKTIGLVGLGDQDTYSETFAEGIFHIYEKAKAGKVVGQTSTDGYHFEASKAVEGGKFVGLVIDEDNQDDLTDERISKWVEQVKGSFA | soluble
GPLQVSNARLLFPISMPEDEGVVRLVVNNTDESDLQVAVVSLPSFVSLDDRAFRLQAREPRELNLSLAVPRNMPPGMKDEPLVLEVTSPETGKKAVDSVMVSLPLVDNFPALTAAQTGVMELSTYLDMGQLDGETTKAAIEIRNVGAGPLRLHSVTTRNPALTAVPDRTEIKPGGSTLLRIAVDPQVMKAEGWQSIAADISIICNDPQAPLRRIKVKAEL | soluble
MMYFISDTHFYHENIINLNPEVRFKGFEIVILTNLLKVLKPEDTLYHLGDFTWHFNDKNEYLRIWKALPGRKILVMGNHDKDKESLKEYFDEIYDFYKIIEHKGKRILLSHYPAKDPITERYPDRQEMVREIYFKENCDLLIHGHVHWNREGIKCACKDYRIECINANVEWNDYKPISEREIDKLISYEKAKN | soluble
MSLLLGVENGRITQLGDAELLAGELDISVKIHDYTGKIICPGFVDTHVHYPQLAIIGSYGESLLHWLENYAFDEEKKFNDADHSLKTANHFLDELLRCGTTTAQVFGTVHPESVEGFFTAAEHRDLRMICGKVLMDRNGPLGLLDTPETSYVDSKNLIERWHGRSRLRYAVSPRFAPTSTPDQLATARQLLREYPGTHLQTHLSEDQEEIKWVKSLFPHCKNYLDIYKRAGLLGKRSTFAHCLHLTEADWEMLEHEGCSVAFCPSSNLFLGSGLFDLPRPQFANVKVGIGTDVGAGTSLSMLQTIADAYKTQRLAGNDLSPLSGLYMATLGGAKSLDCDADIGNFKIGKEADFTVLDPESTPLMSYRMQNCKSLEERLAVIVLLGDDRAILATYANGRCVHDRDIDEESEGHHHHHH | soluble
MSLNDRNASKMLSTYNVAYWGGNYYDVNELGHISVCPDPDIREARVDLAQLVKKMQLEQGQRLPALFCFPQILQHRLRSINAAFKRARESFGYEGGYFLVYPIKVNQHRRVIESLVNSGEPLGLEAGSKAEMMAVLAHAGMTRSVIVCNGYKDREYIRLALIGEKLGHKVYLVIEKMSEIKMVLEEAERLNVVPRLGVRARLASQGSGKWQASGGEKSKFGLSATQVLQLVDMLREANSLESLQLLHFHLGSQLSNIRDISTGVRESARFYVELHKLGVNIQCFDVGGGLGVDYEGTRSQSDCSVNYGLNEYANNVIWGIGDACNEHGLPHPTVITESGRAVTAHHTVLVSNVIGVERNEFCEPQPPEAGAPRALESLWDTWQEMQEPENRRSLREWLHDSQMDLHDVHTQYAHGMLDLTHRAWAEQLYLSICNEIQKQLDPSNRAHRPIIDELQERMADKLYVNFSLFQSMPDAWGIDQLFPVLPLEGLDKPPERRAVLLDITCDSDGTIDHYIDGDGVATTMPMPPYDPENPPLLGFFMVGAYQEILGNMHNLFGDTAAVDVYVFPDGTVEVEQTDEGDTVADMLEYVQLNPEKLLEHFRGQVKETDLDTELQAQFLEEFEAGLYGYTYLEDEGHHHHHH | soluble
MSKWIILSDNHKETGILYHIYELHKDADKFLHLGDSEFSYNDTELSLYQRVKGNCDFYPEFLEEEITEENGIRAFYTHGHLYQVNQTRMKLAEKAKELGCLFAFYGHTHVAKYEQIGGIHVINPGSISQSRSQIEETFAELVYKEDENTIILNFRNRENQIIETVKIEFLEHHHHHH | soluble
MGHHHHHHSHMAAPGLRLGAGRLFEMPAVLERLSRYNSTSQAFAEVLRLPKQQLRKLLYPLQEVERFLAPYGRQDLHLRIFDPSPEDIARADNIFTATERNRIDYVSSAVRIDHAPDLPRPELEENIFISG | not soluble
MAHHHHHHMTLGPTTRVTVNVTGTVTVPLHLNALESLDDAPLQEEIMREAVRLSLAEQLGGFDNFTVTSARKGGNHVCEARLDVGDLCSIIADVKNAYEHGERRLRELQQLITAIREQLKESGREGGSEDEDITVPGIVKVVSDMVEDALRGPGESSLSAAIREVSNDKSWLEEVPVGDRSGGAASKSDEDSPSGVGYTRLPDSGEDSNGSERQLE | soluble
MKFIVKPHPEIFVKSESVRKRFTKILECNIRNIVKSRTESVAVFNRRDHIEVTSESNEYHAEVLEILTHTPGIHHVLEVKQSEFKDLHDIYEQVLELSRPLIENKTFVVRAKRRGKHDFTSIELERYVGGGLNQAVESARVKLHNPDVTVKVEVSGDKLNQVLARHKGLGGFPLGTQEDVLSLISGGFDSGVSSYLHIKRGSKVHYCFFNLGGPAHEIGVKQVSHYLWNKYGSSAKVRFISVDFEPVVAEILEKVDDGQMGVILKRMFMRAAGMIAEKFKIEALVTGEALGQVSSQTLTNLRHIDNVTDTLILRPLINWDKEDIINLAREIGTEDFAKTMPEYCGVISKKPTVKAVKEKLEAEEAKFDFSILEKVVYEARQMDIRDIAKESEQAAPEVEQVQAVEEHAVVLDIRSPDEEDDNPLEIAGVDVKHIPFYKLGTQFGDLDQSKTYLLYCDRGVMSRLQALYLQEQGFNNVKVYRP | not soluble
MFAGCATYAGLNFDQLFGPQLVRERTASVETPQADFFQREVKPIVDNRCVVCHACYDAPCQLKLSSVEGIDRGASKALVYEGTRLTAAAPTRLFEDAETTQEWRDAGFHPVLNERDQSMAANLEAGLIARLLQQKERHPLPDQVQLEGFDFSIDREQTCPTIEEYEQYEKDNPNWGMPFGMPNLTNSEYHTLMTWLENGAIMNMHTPISDQEQAKINQYETLLNHSDLKNQLMSRYIYEHLFLSHLYFSELSEKPRFFTLVRSATPPGQPVKRISTRRPYDDPGVERVYYRIIPEQGTIVDKTHMPFALNKQRISNWKKWFIEADYSVTQLPSYEPEVAANPMTAFIDMPVKSRFKFMLDNAQNTIMAYIKGPVCRGQLALNVINDRFWVFFLDPDKADIPEVNEFYRSQADNLKLPAEQESNTLPVTNWVKYARQQARYLEAKSEFTNNWFKHGENLSTDVIWDGNGTNPNAALTVFRHFDSASVVQGLVGEQPKTVWILDYALLERIHYLLVAGFDVYGNFGHQLMTRMFMDFLRLEGESNFVTLLPADMRHQLQSSWYQDQSPQLSDFLQRNVKPFNQPTSVVYKTDDPKTELLNMMRKRLSPVLLPRYEITDTALSDKTEKELKRIGQVRGEGLQTVPQITMLMVRSKSGKDELFTLLHNNAHTNISSLFDEESNRDFANDDMTIVRGVVGSYPAAFFSLKENQVKEFVDQFSAIQNEADYVKLLDSFAIRRSSEKFWPFSDRIHNWYRTNQPIEFGLLDYNRFENR | not soluble
